Experimental data as given in US20200325475, “DNA APTAMER […] BINDING TO CFP10, AND USE […]” (MD APTUS INC., published 2020).

Key:
[1] = molecular target: CFP10 (culture filtrate protein 10 kDa) (Mycobacterium tuberculosis H37Rv, UniProt P9WNK5 P9WNK5:1-100); test: Cy3-aptamer binding to CFP10 on magnetic beads, fluorescence; 20 mM Tris, 50 mM NaCl, 5 mM KCl, 5 mM MgCl2, pH 8.0; conditions: tags: His6 tag, expressed from pET32a in E. coli BL21(DE3); label: Cy3 (fluorescence Kd assay)
Experimental: 400 pmole of CFP10 was mixed with 10 μL of magnetic beads, and then incubated in 100 μL of a binding buffer (20 mM Tris, 50 mM NaCl, 5 mM KCl, 5 mM MgCl₂, pH 8.0) for 1 hour. To separate unbound CFP10, washing was performed twice with a binding buffer. Subsequently, the resulting mixture was incubated together with various concentrations of a Cy3-labeled aptamer, and an unbound aptamer was removed by washing. The amount of Cy3-labeled ssDNA aptamer bound to the magnetic beads with CFP10 immobilized thereon was measured by fluorescence measurement (1420 Victor Multilabel counter, PerkinElmer, USA) by separating only Cy3-labeled ssDNA bound to CFP10. As a result, as shown in FIG. 3 and Table 2 below, the Kd value of the DNA aptamer having a CG6 base sequence was measured.

ESAT6 = ESAT6 (UniProt P9WNK7 P9WNK7:1-95); test: impedance biosensor, 10 pM protein in PBS
Source text: At this time, each protein was mixed at a concentration of 10 pM with PBS and used for detection.

Sequence of ESAT6 (P9WNK7 whole entry, one chain of several): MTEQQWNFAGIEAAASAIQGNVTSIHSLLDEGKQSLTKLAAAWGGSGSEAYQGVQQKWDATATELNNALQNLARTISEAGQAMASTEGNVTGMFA
Sequence of CFP10 (culture filtrate protein 10 kDa) (P9WNK5 whole entry, one chain of several): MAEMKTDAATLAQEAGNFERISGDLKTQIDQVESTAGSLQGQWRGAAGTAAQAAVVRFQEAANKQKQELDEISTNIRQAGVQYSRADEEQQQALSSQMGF

B1: CG6 (ssDNA)
DNA: CACCTAATACGACTCACTATAGCGGATCCGACCTAGGTTCAGAAGGCTTTCTATTTTCCCGGTGCCTCGCACTGGCTCGAACAAGCTTGC
**Q.** With B1 as the binder, how does the Kd [1] read?
**A.** The Kd was 92.8 nM.

**Q.** Does B1 bind (ESAT6)?
**A.** Result: no binding
